Assay results: the supplement of paper PMC9112550, “Optimization of the antimicrobial peptide Bac7 by deep mutational scanning” (BMC Biology, 2022)

Test system: Escherichia coli TOP10
Assay: shrunken log2 fold change of peptide-encoding DNA abundance (4.5 h post-induction vs induction); higher = less antimicrobial activity (less host growth inhibition)
Conditions: time post-induction: 4.5 h; library: site-saturation at positions 5, 18, 19, 20
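Further: peptides expressed intracellularly from a pBAD plasmid library in pooled LB shake-flask culture, induced with 0.3% L-arabinose, DNA abundance read by NGS, three biological replicates, DESeq2 with apeglm shrinkage.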

| Sequence | shrunken log2 fold change |
| --- | --- |
| RRIRCRPPRLPRPRPRPCKTPRP | -0.0345 |
| RRIRLRPPRLPRPRPRPLQRPRP | 0.0926 |
| RRIRHRPPRLPRPRPRPCCEPRP | -0.366 |
| RRIRHRPPRLPRPRPRPLQIPRP | 0.0781 |
| RRIRKRPPRLPRPRPRPDYFPRP | 0.0333 |
| RRIRERPPRLPRPRPRPCLFPRP | -0.222 |
| RRIRLRPPRLPRPRPRPERMPRP | -0.0208 |
| RRIRRRPPRLPRPRPRPMDDPRP | 0.211 |
| RRIRSRPPRLPRPRPRPVWAPRP | 0.67 |
| RRIRPRPPRLPRPRPRPVYRPRP | -0.166 |
| RRIRARPPRLPRPRPRPCYGPRP | -0.246 |
| RRIRKRPPRLPRPRPRPALRPRP | 0.455 |
| RRIRQRPPRLPRPRPRPDDVPRP | 0.064 |
| RRIRERPPRLPRPRPRPHCMPRP | -0.235 |
| RRIRRRPPRLPRPRPRPFKWPRP | -0.157 |
| RRIRMRPPRLPRPRPRPNTYPRP | -0.0596 |
| RRIRHRPPRLPRPRPRPACVPRP | 0.0678 |
| RRIRQRPPRLPRPRPRPHKYPRP | -1.21 |
| RRIRVRPPRLPRPRPRPGFTPRP | -0.143 |
| RRIRHRPPRLPRPRPRPGRFPRP | 0.314 |
| RRIRFRPPRLPRPRPRPKHHPRP | -0.282 |
| RRIRTRPPRLPRPRPRPMIDPRP | -0.246 |
| RRIRRRPPRLPRPRPRPPFRPRP | 0.631 |
| RRIRNRPPRLPRPRPRPENMPRP | -0.262 |
| RRIRGRPPRLPRPRPRPFACPRP | 0.39 |

| Sequence | shrunken log2 fold change |
| --- | --- |
| RRIRWRPPRLPRPRPRPQFSPRP | 0.053 |
| RRIRQRPPRLPRPRPRPYICPRP | -0.102 |
| RRIRQRPPRLPRPRPRPADHPRP | -0.0888 |
| RRIRRRPPRLPRPRPRPWNEPRP | -0.208 |
| RRIRPRPPRLPRPRPRPYCKPRP | -0.896 |
| RRIRARPPRLPRPRPRPYLWPRP | 0.134 |
| RRIRCRPPRLPRPRPRPDNNPRP | -0.661 |
| RRIRLRPPRLPRPRPRPKVCPRP | 0.0264 |
| RRIRSRPPRLPRPRPRPVGQPRP | 0.236 |
| RRIRWRPPRLPRPRPRPTDLPRP | 0.0776 |
| RRIRTRPPRLPRPRPRPITHPRP | -0.0526 |
| RRIRDRPPRLPRPRPRPHDRPRP | -0.00543 |
| RRIRHRPPRLPRPRPRPFLAPRP | -0.336 |
| RRIRVRPPRLPRPRPRPTGGPRP | 0.18 |
| RRIRWRPPRLPRPRPRPWKMPRP | -0.0467 |
| RRIRVRPPRLPRPRPRPYAAPRP | -0.3 |
| RRIRRRPPRLPRPRPRPSYNPRP | -0.16 |
| RRIRIRPPRLPRPRPRPHFVPRP | -0.565 |
| RRIRVRPPRLPRPRPRPRNYPRP | -0.567 |
| RRIRIRPPRLPRPRPRPTRGPRP | 0.0292 |
| RRIRTRPPRLPRPRPRPIFEPRP | -0.113 |
| RRIRFRPPRLPRPRPRPHHMPRP | 0.335 |
| RRIRRRPPRLPRPRPRPECHPRP | 0.171 |
| RRIRMRPPRLPRPRPRPKECPRP | -0.0981 |
| RRIRMRPPRLPRPRPRPIYHPRP | -0.322 |

| Sequence | shrunken log2 fold change |
| --- | --- |
| RRIRARPPRLPRPRPRPNHWPRP | 0.0522 |
| RRIRSRPPRLPRPRPRPVHGPRP | -0.215 |
| RRIRLRPPRLPRPRPRPQDDPRP | -0.224 |
| RRIRVRPPRLPRPRPRPNWPPRP | 0.282 |
| RRIRNRPPRLPRPRPRPIQGPRP | -0.105 |
| RRIRRRPPRLPRPRPRPTSYPRP | -0.0452 |
| RRIRQRPPRLPRPRPRPFLNPRP | -0.118 |
| RRIRARPPRLPRPRPRPKSTPRP | 0.28 |
| RRIRFRPPRLPRPRPRPNWQPRP | 0.0965 |
| RRIRGRPPRLPRPRPRPYPVPRP | 0.0121 |
| RRIRIRPPRLPRPRPRPYTTPRP | -0.0313 |
| RRIRDRPPRLPRPRPRPYFIPRP | -0.324 |
| RRIRPRPPRLPRPRPRPHVWPRP | 0.51 |
| RRIRMRPPRLPRPRPRPGCSPRP | 0.815 |
| RRIRVRPPRLPRPRPRPFVGPRP | -0.0757 |
| RRIRRRPPRLPRPRPRPMEKPRP | 0.096 |
| RRIRPRPPRLPRPRPRPPCPPRP | 0.294 |
| RRIRWRPPRLPRPRPRPIWVPRP | -0.0257 |
| RRIRIRPPRLPRPRPRPVHIPRP | -0.155 |
| RRIRWRPPRLPRPRPRPEGGPRP | 0.567 |
| RRIRRRPPRLPRPRPRPDTQPRP | 0.162 |
| RRIRTRPPRLPRPRPRPMKFPRP | -0.116 |
| RRIRVRPPRLPRPRPRPAFNPRP | -0.416 |
| RRIRCRPPRLPRPRPRPTIKPRP | -0.364 |
| RRIRWRPPRLPRPRPRPCTTPRP | -0.183 |

| Sequence | shrunken log2 fold change |
| --- | --- |
| RRIRHRPPRLPRPRPRPLDNPRP | -0.515 |
| RRIRIRPPRLPRPRPRPCRAPRP | -0.284 |
| RRIRRRPPRLPRPRPRPTTFPRP | 3.05 |
| RRIRGRPPRLPRPRPRPCDIPRP | -0.00533 |
| RRIRKRPPRLPRPRPRPSIDPRP | 0.175 |
| RRIRNRPPRLPRPRPRPEIIPRP | -0.00607 |
| RRIRCRPPRLPRPRPRPLGRPRP | -0.151 |
| RRIRCRPPRLPRPRPRPTPPPRP | 0.807 |
| RRIRWRPPRLPRPRPRPQFGPRP | 0.0671 |
| RRIRLRPPRLPRPRPRPETWPRP | 0.0117 |
| RRIRQRPPRLPRPRPRPHRVPRP | -0.00151 |
| RRIRIRPPRLPRPRPRPRFSPRP | -0.231 |
| RRIRCRPPRLPRPRPRPFRAPRP | -0.277 |
| RRIRYRPPRLPRPRPRPKWFPRP | -0.87 |
| RRIRARPPRLPRPRPRPDLTPRP | 0.198 |
| RRIRKRPPRLPRPRPRPNYPPRP | -0.175 |
| RRIRNRPPRLPRPRPRPVLMPRP | -0.14 |
| RRIRTRPPRLPRPRPRPVCDPRP | 0.0701 |
| RRIRWRPPRLPRPRPRPRNMPRP | -0.0758 |
| RRIRGRPPRLPRPRPRPDDSPRP | 0.121 |
| RRIRMRPPRLPRPRPRPCIAPRP | 0.099 |
| RRIRDRPPRLPRPRPRPEVRPRP | 1.91 |
| RRIRSRPPRLPRPRPRPDTYPRP | -0.713 |
| RRIRIRPPRLPRPRPRPRKHPRP | -0.252 |
| RRIRTRPPRLPRPRPRPDVDPRP | -0.0342 |

| Sequence | shrunken log2 fold change |
| --- | --- |
| RRIRMRPPRLPRPRPRPKLGPRP | 0.597 |
| RRIRVRPPRLPRPRPRPEVIPRP | -0.595 |
| RRIRWRPPRLPRPRPRPKRQPRP | 0.167 |
| RRIRPRPPRLPRPRPRPKCWPRP | 0.765 |
| RRIRLRPPRLPRPRPRPYVAPRP | -0.602 |
| RRIRYRPPRLPRPRPRPTENPRP | -0.239 |
| RRIRDRPPRLPRPRPRPLANPRP | 0.861 |
| RRIRCRPPRLPRPRPRPAICPRP | 0.0424 |
| RRIRNRPPRLPRPRPRPGQCPRP | 0.0172 |
| RRIRHRPPRLPRPRPRPWSHPRP | 0.0143 |
| RRIRQRPPRLPRPRPRPYQIPRP | -0.227 |
| RRIRPRPPRLPRPRPRPHLSPRP | -0.142 |
| RRIRKRPPRLPRPRPRPKAYPRP | 0.0431 |
| RRIRIRPPRLPRPRPRPYDCPRP | 0.0019 |
| RRIRTRPPRLPRPRPRPFHQPRP | -0.126 |
| RRIRWRPPRLPRPRPRPWVTPRP | -0.37 |
| RRIRPRPPRLPRPRPRPTHVPRP | 0.317 |
| RRIRRRPPRLPRPRPRPTPVPRP | 0.969 |
| RRIRLRPPRLPRPRPRPNLRPRP | -0.0377 |
| RRIRIRPPRLPRPRPRPIPWPRP | -0.533 |
| RRIRERPPRLPRPRPRPAYNPRP | -0.449 |
| RRIRGRPPRLPRPRPRPKVNPRP | 0.236 |
| RRIRNRPPRLPRPRPRPSVFPRP | -0.342 |
| RRIRCRPPRLPRPRPRPDWCPRP | 0.27 |
| RRIRKRPPRLPRPRPRPAYQPRP | 0.0163 |
